± gives the standard deviation of the averaged measurements.
The sequences below were run on ATP (assay: switch fluorescence ratio, 500 uM ATP over buffer (Cy3 cluster intensity, sum of 5 cycles each) (fold (ratio)); higher = stronger signal-on switching upon ATP binding; sequences stand for … in TCGTCGGCAGCGTCAGATGTGTATAAGAGACAGTTTTTTTTTTTTTTTTTTTTTTTTT…TC). Conditions: aptamer strand: ATP DNA aptamer (quencher-CACCTGGGGGAGTATTGCGGAGGAAGG + anchor), 100 nM annealed; ATP concentration: 500 uM.
Summary of the method: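 The quencher-labelled ATP aptamer, at 100 nM, was annealed to Cy3-labelled switching-strand clusters on a modified Illumina MiSeq flow-cell. The clusters were imaged in selection buffer, then after 15 min with 500 uM ATP at 22 °C, and this buffer/ATP cycle ran five times with NaOH stripping and re-annealing between runs. Per-cluster fluorescence ratios, summed target-cycle over summed buffer-cycle Cy3 intensity, were averaged per switch-domain sequence. Clusters outside 100-1000 RFU were excluded.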
GAATAAATTT showed a switch fluorescence ratio of 1.02 ± 0.069. In the case of GAATACTTCG, the switch fluorescence ratio is reported as 1.07 ± 0.016. For GAATACTTGG, the switch fluorescence ratio was 1.04 ± 0.054. With GAATAGGGCC the switch fluorescence ratio was 1.01 ± 0.028. Sequence GAATAGGTAA has a switch fluorescence ratio of 1.023 ± 0.0038. GAATAGGTAT gave a switch fluorescence ratio of 0.99505 ± 0.00011. GAATATCTGG was tested, and the switch fluorescence ratio was 0.97 ± 0.011. Work on GAATATGTAG yielded a switch fluorescence ratio of 0.965 ± 0.044. GAATATTCGC was tested, and the switch fluorescence ratio was 0.9958 ± 0.0032. With GAATCAGGGA the switch fluorescence ratio was 1.02 ± 0.015. For GAATCATATG, the switch fluorescence ratio was 0.977 ± 0.011. For GAATCATTTT, the switch fluorescence ratio was 1.02 ± 0.036. GAATCGGGGG gave a switch fluorescence ratio of 0.979 ± 0.044. GAATGACCCG showed a switch fluorescence ratio of 1.11 ± 0.012. With GAATGCGGAA the switch fluorescence ratio was 1.0339 ± 0.00078. GAATGGATGT was tested, and the switch fluorescence ratio was 1 ± 0.012. In the case of GAATGGCGTA, the switch fluorescence ratio is reported as 1.02 ± 0.046. For GAATGGGATA, the switch fluorescence ratio was 1.04 ± 0.084. GAATGGTATA showed a switch fluorescence ratio of 0.9925 ± 0.0035. Work on GAATTACTAT yielded a switch fluorescence ratio of 1.038 ± 0.0087. In the case of GAATTATCTA, the switch fluorescence ratio is reported as 0.996 ± 0.022. Work on GAATTCAGGT yielded a switch fluorescence ratio of 0.994 ± 0.011. GAATTCCAGT showed a switch fluorescence ratio of 0.9968 ± 0.0076. GAATTCGGAA gave a switch fluorescence ratio of 1.0486 ± 0.00049. GAATTCGGAC gave a switch fluorescence ratio of 1.04 ± 0.016. For GAATTTATGG, the switch fluorescence ratio was 0.985 ± 0.023. For GAATTTATTT, the switch fluorescence ratio was 0.999 ± 0.025. GAATTTGATT showed a switch fluorescence ratio of 1.02 ± 0.025. GACAAAAGGT showed a switch fluorescence ratio of 1.03 ± 0.013. For GACAAACCGC, the switch fluorescence ratio was 1.18 ± 0.032. Sequence GACAAATGTG has a switch fluorescence ratio of 0.99815 ± 0.00093. For GACAAGGGGG, the switch fluorescence ratio was 0.981 ± 0.065. GACACAAAAG showed a switch fluorescence ratio of 1.069 ± 0.0023. With GACACGGGCG the switch fluorescence ratio was 1.044 ± 0.0035. GACACTTGGA showed a switch fluorescence ratio of 1.03 ± 0.014. GACAGAGGGC showed a switch fluorescence ratio of 0.96 ± 0.062. GACAGATGGT gave a switch fluorescence ratio of 1.01 ± 0.019. With GACAGGGGAG the switch fluorescence ratio was 1 ± 0.018. With GACAGTCAAA the switch fluorescence ratio was 1.01 ± 0.04. GACATAGCGG showed a switch fluorescence ratio of 1.07 ± 0.03. Work on GACATATGGG yielded a switch fluorescence ratio of 0.967 ± 0.035. GACATGGGAT was tested, and the switch fluorescence ratio was 1.01 ± 0.037. Sequence GACATTAAGG has a switch fluorescence ratio of 1.01 ± 0.084. Sequence GACATTTCGT has a switch fluorescence ratio of 0.992 ± 0.019. With GACCATACGC the switch fluorescence ratio was 1.42 ± 0.055. GACCATTGGA was tested, and the switch fluorescence ratio was 1.006 ± 0.0011. In the case of GACCATTTGT, the switch fluorescence ratio is reported as 0.995 ± 0.033. In the case of GACCATTTTT, the switch fluorescence ratio is reported as 1.02 ± 0.038. GACCCGCTTG was tested, and the switch fluorescence ratio was 1.06 ± 0.013. Sequence GACCCGGGTG has a switch fluorescence ratio of 2.98 ± 0.18. GACCCGGGTT gave a switch fluorescence ratio of 1.11 ± 0.15. Work on GACCCGTCCA yielded a switch fluorescence ratio of 0.995 ± 0.024. Work on GACCCTAAC yielded a switch fluorescence ratio of 1.14 ± 0.016. GACCCTGGGT was tested, and the switch fluorescence ratio was 1.06 ± 0.033. GACCGAAAGT was tested, and the switch fluorescence ratio was 0.998 ± 0.01. GACCGAGCGT was tested, and the switch fluorescence ratio was 1.1 ± 0.06. With GACCGGCGTC the switch fluorescence ratio was 1.02 ± 0.017. GACCGGGCCC gave a switch fluorescence ratio of 1.01 ± 0.015. Work on GACGAAAATC yielded a switch fluorescence ratio of 1.2 ± 0.032. GACGAAGGT showed a switch fluorescence ratio of 1.01 ± 0.052. With GACGAATCAG the switch fluorescence ratio was 0.97 ± 0.018. In the case of GACGACGGGT, the switch fluorescence ratio is reported as 1.27 ± 0.041. GACGACGTGT gave a switch fluorescence ratio of 1.43 ± 0.35. GACGACTTGA was tested, and the switch fluorescence ratio was 1.02 ± 0.042. GACGCACGAA gave a switch fluorescence ratio of 1.58 ± 0.057. In the case of GACGCGGTTC, the switch fluorescence ratio is reported as 5.13 ± 0.77. With GACGCTAGGG the switch fluorescence ratio was 1 ± 0.052. GACGGAGACC was tested, and the switch fluorescence ratio was 1.11 ± 0.027. With GACGGAGTTG the switch fluorescence ratio was 1.01 ± 0.026. GACGGATGTG showed a switch fluorescence ratio of 0.986 ± 0.032. GACGGCGTTC gave a switch fluorescence ratio of 1.008 ± 0.0058. For GACGGCTGCT, the switch fluorescence ratio was 1.01 ± 0.0042. Sequence GACGGCTGGA has a switch fluorescence ratio of 1.007 ± 0.0029. GACGGCTGTA showed a switch fluorescence ratio of 0.991 ± 0.015. GACGGGAAAA showed a switch fluorescence ratio of 1.07 ± 0.14. GACGGGAGCT gave a switch fluorescence ratio of 1.06 ± 0.021. For GACGGGCAAG, the switch fluorescence ratio was 1.02 ± 0.053. GACGGGCCGT was tested, and the switch fluorescence ratio was 1.01 ± 0.021. Work on GACGGGCGGA yielded a switch fluorescence ratio of 1.019 ± 0.0024. With GACGGGGAGG the switch fluorescence ratio was 0.9995 ± 0.0092. GACGGGGCGT gave a switch fluorescence ratio of 0.989 ± 0.013. GACGGGGTAG showed a switch fluorescence ratio of 1 ± 0.048. Work on GACGGTCATG yielded a switch fluorescence ratio of 0.995 ± 0.018. GACGGTGCAT showed a switch fluorescence ratio of 1.33 ± 0.084. Sequence GACGGTTGAG has a switch fluorescence ratio of 1.025 ± 0.0057. GACGGTTTAC was tested, and the switch fluorescence ratio was 1.65 ± 0.023. In the case of GACGTAACCT, the switch fluorescence ratio is reported as 1.5 ± 0.032. GACGTAGT gave a switch fluorescence ratio of 1.01 ± 0.022. In the case of GACGTATATT, the switch fluorescence ratio is reported as 1.08 ± 0.0067. GACGTGAAGG showed a switch fluorescence ratio of 1.026 ± 0.0055. GACGTGAGGA gave a switch fluorescence ratio of 0.989 ± 0.024. For GACGTGAGGT, the switch fluorescence ratio was 1.017 ± 0.0012. GACGTGTCAA showed a switch fluorescence ratio of 1.03 ± 0.019. GACGTGTGAG showed a switch fluorescence ratio of 0.993 ± 0.034. GACGTTTAAG gave a switch fluorescence ratio of 0.977 ± 0.029. In the case of GACTACGGTT, the switch fluorescence ratio is reported as 1.006 ± 0.0095. GACTATTATG gave a switch fluorescence ratio of 1 ± 0.019. With GACTCGGGCG the switch fluorescence ratio was 1.014 ± 0.0082. GACTGCGGAG was tested, and the switch fluorescence ratio was 1 ± 0.026. GACTGCTTGG showed a switch fluorescence ratio of 0.9518 ± 0.0063.
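Also: ATP exposure 15 min at 22 °C before imaging.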
